Source: patent US20170218047A1, “NOVEL FUSION PARTNERS FOR THE PURPOSE OF CRYSTALLIZING G-PROTEIN COUPLED RECEPTORS” (THE SCRIPS RESEARCH INSTITUTE, priority 2011, published 2017)

Assay: Size exclusion chromatography (SEC) of purified S1P1-fusion partner proteins
Format: physicochemical
Settings: presence or absence of ligand
Procedure: S1P1-fusion partner proteins (“S1P1 fusion receptors”) were purified from membranes by dodecyl-maltoside (DDM) extraction followed by immobilized metal affinity chromatography (IMAC) on Talon resin (Clontech) as detailed below. Frozen cellular membranes were thawed by adding room temperature lysis buffer to a total volume of 25 mL. The S1P1 receptor antagonist W146 was added to a final concentration of 125 μM. The mixture was allowed to incubate at room temperature for 1 hour to ensure complete saturation of the receptor with ligand followed by addition of iodoacetamide to a concentration of 1 mg/mL and an additional 1 hour incubation at 4° C. Receptor solubilization was initiated by addition of detergent and cholesteryl hemisuccinate (CHS) to achieve a final concentration of 0.5% DDM 0.1% CHS. The solubilization buffer consisted of the following mixture: 50 mM Hepes pH 7.5; 800 mM NaCl; 30 mM Imidazole; 0.1% DDM 0.02% CHS; 125 μM W146. […]
Eluted proteins were analyzed by size-exclusion chromatography (SEC) followed by SDS-PAGE. […] SEC fractions corresponding to S1P1-fusion partner proteins were evaluated separated by SDS-PAGE on a 10% gel and stained, confirming that each S1P1-fusion partner protein could be purified to near-homogeneity (data not shown).

B1: S1P1-flavodoxin: S1P1 receptor with flavodoxin replacing part of ICL3, SEQ ID NO: 3 (protein, listed as Homo sapiens)
chain: MGPTSVPLVKAHRSSVSDYVNYDIIVRHYNYTGKLNISADKENSIKLTSVVFILICCFIILENIFVLLTIWKTKKFHRPMYYFIGNLALSDLLAGVAYTANLLLSGATTYKLTPAQWFLREGSMFVALSASVFSLLAIAIERYITMLKMKLHNGSNNFRLFLLISACWVISLILGGLPIMGWNCISALSSCSTVLPLYHKHYILFCTTVFTLLLLSIVILYCRIYSLVRTRAKALIVYGSTTGNTEYTAETIARELADAGYEVDSRDAASVEAGGLFEGFDLVLLGCSTWGDDSIELQDDFIPLFDSLEETGAQGRKVACFGCGDSSWEYFCGAVDAIEEKLKNLGAEIVQDGLRIDGDPRAARDDIVGWAHDVRGAIASRSSENVALLKTVIIVLSVFIACWAPLFILLLLDVGCKVKTCDILFRAEYFLVLAVLNSGTNPIIYTLTNKEMRRAFIRIM
Q: For B1, which “stability by SEC (in words)” value is on record?
A: Its value is “stable in the presence or absence of ligand”.
